Measurements as given in US20190248902A1 (published 2019).

T1: recombinant, soluble human ASGR-1 (human, UniProt P07306 62-291)
T1 construct: biotinylated in the binning assay; also called soluble huASGR-1; Soluble ASGR-1 (Amgen)
T1 sequence: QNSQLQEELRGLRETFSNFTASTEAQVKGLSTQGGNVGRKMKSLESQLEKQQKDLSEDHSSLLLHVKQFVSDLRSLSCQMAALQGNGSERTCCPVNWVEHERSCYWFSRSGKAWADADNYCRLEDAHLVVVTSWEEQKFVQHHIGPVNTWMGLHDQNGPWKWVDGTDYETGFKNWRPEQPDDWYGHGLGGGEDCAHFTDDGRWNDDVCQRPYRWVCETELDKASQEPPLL


Assays:
[1] = biological target: T1, recombinant, soluble human ASGR-1; experiment: Octet BLI dissociation, pH 7.4 minus calcium
How it was run: (§1)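 Antibodies were captured on anti-human Fc biosensors, and soluble ASGR-1 (6 ug/ml) was associated for 2 min in Tris buffer containing 1 mM CaCl2 at pH 7.4, followed by 10 min dissociation under each test condition. The signal at the end of association was set as 100%. Percent ASGR-1 still bound after 1 min of dissociation was compared with the pH 7.4 plus calcium control, and >10% extra dissociation was scored as sensitive.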

[2] = biological target: T1, recombinant, soluble human ASGR-1; experiment: Octet BLI dissociation, pH 5.6 minus calcium
How it was run: as §1

[3] = biological target: T1, recombinant, soluble human ASGR-1; experiment: Octet BLI dissociation, pH 5.6 plus calcium
How it was run: as §1

| % Change Compared to pH 7.4 + Calcium [1] [%] | % Change Compared to pH 7.4 + Calcium [2] [%] | % Change Compared to pH 7.4 + Calcium [3] [%] | Binder |
| --- | --- | --- | --- |
| -14 | -13 | -27 | 172B12 (antibody, V domains shown, hybridoma mAb) VH: QVQLVQSGAEVKKPGASVTVSCKASGYTFRSYYMYWVRQAPGQGLEWVGTINPSGGSTDYAQKFQGRVTMTRDTSTSTLYMELNSLRSEDTAVYYCASGWELNYWGQGTLVTVSS VL: SSELTQDPAVSVALGQTVRITCQGDSLRNYYASWYQQKPGQAPILVIYTKNSRPSGIPDRFSGSTSGNTASLTITGAQAEDEADYYCNSRDSSGNHVVFGGGTKLTVL |
| -9 | 0 | -26 | 172C3 (antibody, V domains shown, hybridoma mAb) VH: QVQLVQSGAEVKKPGASVKVSCKASGYTFRSYYMYWVRQAPGQGLEWVGTINPSGGSTNYAQKFQGRVTMTRDTSTSTLYMELNSLRSEDTAVYYCASGWELNYWGQGTLVTVSS VL: SSELTQDPAVSVALGQTVRITCQGDSLRNYYVSWYQQKPGQAPILVIYTKNSRPSGIPDRFSGSTSGNTASLTITGTQAEDEADYYCNSRDSSGNHVVFGGGTKLTVL |
| 8 | -5 | -9 | 74B2 (antibody, V domains shown, hybridoma mAb) VH: QVQLQQWGAGLLKPSEPLSLTCAVYGGSFSGPYWSWIRQPPGKGLEWIGEINHSGSTNYNPSLTSRVTISVDTSKNQFSLKLTSVTAADSAVYYCARDYGGLDVWGQGTTVTVSS VL: ELVLTQSPGTLSLSPGERATLSCRASQNIYSSYLAWYQQKPGQAPRLLIYGASSRATGIPDRFSGSGSGTDFTLTISRLEPEDFAVYCCQQYESSPWTFGQGTKVEIK |
| 2 | 2 | -2 | 85F7 (antibody, V domains shown, hybridoma mAb) VH: QVQLQQWGAGLLKPSEPLSLTCAVYGGSFSGPYWSWIRQPPGKGLEWIGEINHSGSTNYNPSLKSRVTISVDTSKNQFSLKLTSVTAADTAVYYCARDYGGLDVWGQGTTVTVSS VL: EPVLTQSPGTLSLSPGERATLSCRASQNIYSNYLAWYQQKPGQAPRLLIYGASSRATGIPDRFSGSGSGTDFTLTISRLEPEDFAVYCCQQYESSPWTFGQGTKVEIK |
| 13 | 23 | 0 | 65C12 (antibody, V domains shown, hybridoma mAb) VH: EVQLVESGGGLVKPGGSLRLSCAASGFTFRSFSLNWVRQAPGKGLEWVSSISSSSSYIYYADSVKGRFTISRDNAKNSLYLQMNSLRAEDTAVYYCARDAYSHYWGQGTLVTVSS VL: EIVMTQSPATLSVFPGEGATLSCRASQSVSINLAWYQQKPGQAPRLLIYGASTRATGIPARFNASGSGTEFTLSISSLQSENFAVYYCQQYNTWPLTFGGGTKVEIK |
| 100 | 77 | 51 | 226F9 (antibody, V domains shown, hybridoma mAb) VH: QVQLVQSGAEVKKPGASVKVSCKASGYTFTGYYIHWVRQAPGQGLEWMGWINPYSGDTKYAQKFQGRVTMTRATSISTAYMELSRLRFDDTAVFYCARDWGGYSSYYYGMDVWGQGTTVTVSS VL: DIVMTQTPLSLSVTPGQPASISCKSSQSLLHSDGKTFLYWYLQKPGQPPQLLIYEISNRFSGVPDRFSGSGSGTDFTLKISRVEAEDVGIYYCMQSTQLPRTFGQGTKVEIK |
| 100 | 73 | 54 | 227C1 (antibody, V domains shown, hybridoma mAb) VH: QVQLVQSGAEVKKPGASVKVSCKASGYTFTGYYTHWVRQAPGQGLEWMGWINPYSGGTNYAQKFQGRVTMTRDTSISTAYMELSRLRFDDTAVYYCARDWGGYSSYYYGMDVWGQGTTVTVSS VL: DIVMTQTPLSLSVTPGQPASISCKSSQSLLHSDGKTFLYWYLQKPGQPPQLLIYEISNRFSGVPDRFSGSGSGTDFTLKISRVEAEDVGIYYCMQSTQLPRTFGQGTKVEIK |
| 77 | 65 | 41 | 224G1 (antibody, V domains shown, hybridoma mAb) VH: QVQLVQSGAEVKKPGASVKVSCKASGYTFTGYYIHWVRQAPGQGLEWMGWINPYSGDTNYAQKFQGRVTMTRDTSISTAYMELSRLRFDDTAVFYCARDWGGYSSYYYGMDVWGQGTTVTVSS VL: DIVMTQTPLSLSVTPGQPASISCKSGQSLLHSDGKTFLSWYLQKPGQPPQLLIYEISNRFSGVPDRFSGSGSGTDFTLKISRVEAEDVGIFYCMQSTQLPRTFGQGTKVEIK |
| 80 | 100 | 50 | 227F2 (antibody, V domains shown, hybridoma mAb) VH: QVHLVQSGAEVKKPGASVKVSCKASGYTFTGYYIHWVRQAPGQGLEWMGWINPYSGDTKYAQKFQGRVTMTRDTSISTAYMELSRLRFDDTAVFYCARDWGGYSSYYYGMDVWGQGTTVTVSS VL: DIVMTQTPLSLSVTPGQPASISCKSSQSLLHSDGKTFLYWYLQKPGQPPQLLIYEISNRFSGVPDRFSGSGSGTDFTLKISRVEAEDVGIYYCMQSTQLPRTFGQGTKVEIK |
| 1 | 0 | -4 | 218G4 (antibody, V domains shown, hybridoma mAb) VH: QVQLVESGGGVVQPGRSLRLSCAASGFTFSSYGLHWVRQAPGKGLEWVAVIWYDGSNKYYADSVKGRFTISRDNSKNTLYLQMNSLRVEDTAVYYCANWYYYYYGMDVWGQGTTVTVSS VL: QSVLTQPPSVSAAPGQKVTISCSGSSSNIGNNYVSWYQQLPGTAPKLLLYDSNKRPSGIPARFSGSKSGTSATLGITGLQTGDEADYYCGTWDSSLNTVVFGGGTKLTVL |
| 2 | 9 | -7 | 149A1 (antibody, V domains shown, hybridoma mAb) VH: EVQLVESGGGLVQPGGSLRLSCAASGFTFSSYNMNWVRQAPGKGLEWVSYISRSSNTKHYADSVKGRFTISRDNAKNSLYLQMNSLRDEDTAVYYCARDRSGSYGYFYYYGLDVWGQGTTVTVSS VL: not shown |
| 2 | 25 | -9 | 146A8 (antibody, V domains shown, hybridoma mAb) VH: EVKLVESGGGLVQPGESLRLSCVASGFTFSNYNMNWVRQAPGKGLEWVSYISRSSNTKYYADSVRGRFTISRDNAKNSLYLQMNSLRDEDTAVYYCARDRSGSYGYFYYYGLDVWGQGTTVTVSS VL: not shown |
| 2 | 13 | -5 | 146B6 (antibody, V domains shown, hybridoma mAb) VH: EVQLVESGGGLVQPGGSLRLSCAASGFTFSSYNMNWVRQAPGKGLEWVSYISRSSNTKHYADSVKGRFTISRDNAKNSLYLQMDSLRDEDTAVYYCARDRSGSYGYFYYYGLDVWGQGTTVTVSS VL: not shown |
| 3 | 11 | 2 | 198B9 (antibody, V domains shown, hybridoma mAb) VH: QVQLVESGGGVVQPGRSLRLSCAASGFTFSNYGMHWVRQAPGKGLEWVAIIWFDGSNKYYVDSVKGRFTISRDNSKNTLFLQMSSLRAEDTAVYYCAREWLQFRYYYGMDVWGQGTTVTVSS VL: DIQMTQSPSSLSASVGDRVTITCRASQGIRKDLGWYQQKPGKAPKRLIYAASSLQSGVPSRFSGSGSGTEFTLTISSLQPEDFATYVCLQHYRYPFTFGPGTKVDFK |
| -9 | -4 | -9 | 193E7 (antibody, V domains shown, hybridoma mAb) VH: QVQLQQWGAGLLKPSETLSLTCAVYGGSFSGYFWTWIRQPPGKGLEWIGEINHSGSTNYNPSLKSRVTISVDTSKNQFSLKLSSVTAADTAVYYCARDYGADYWGQGTLVAVSA VL: DIQMTQSPSSLSASVGDRVTITCRASQGIRNDLGWYQQKPGKAPKRLIYSASSLQRGVPSRFSGSGSGTEFTLTISSLQPEDFATYYCLQHKRYPLTFGGGTKVEIK |
| 1 | 10 | 1 | 199A7 (antibody, V domains shown, hybridoma mAb) VH: QVQLVESGGGVVQPGRSLRLSCAASGFTFSNYGMHWVRQAPGKGLEWVAIIWFDGSNKYYADSVKGRFTISRDNSKNTLFLQMSSLRAEDTAVYYCAREWLQFRYYYGMDVWGQGTTVTVSS VL: DIQMTQSPSSLSASVGDRVTITCRASQGIRKDLGWYQQKPGKAPKRLIYAASSLQSGVPSRFSGSGSGTEFTLTISSLQPEDFATYVCLQHYRYPFTFGPGTKVDFK |
| -5 | -4 | -4 | 199E3 (antibody, V domains shown, hybridoma mAb) VH: QVQLQQWGAGLLKPSETLSLTCAVYGGSFSGYFWTWIRQPPGKGLEWIGEINHSGSTNYNPSLKSRVTISVDTSKNQFSLKLSSVTAADTAVYYCARDYGADYWGQGTLVAVSA VL: DIQMTQSPSSLSASVGDRVTITCRASQGIRNDLGWYQQKPGKAPKRLISSASSLQRGVPSRFSGSGSGTEFTLTISSLQPEDFATYYCLQHKRYPLTFGGGTKVEIK |
